These results are taken from paper PMC7962591 (Cell, 2021).

The test deals with SARS-CoV-2 (strain Wuhan-Hu-1) spike protein, wild type, full-length expression construct (SARS-CoV-2, Wuhan-Hu-1, UniProt P0DTC2). Nature of the test: flow cytometry on cells.

B1: COV2-2489 (human mAb, recombinant IgG1) (antibody, V domains shown)
VH: QLQLQESGPGLVKPSETLSLTCTVSGGSISSTTYYWGWIRQPPGKGLEWIASIYYSGSTYYNPSLKSRLTVSVDTSKNQFSLKLSSVTAADTAVYYCARQWKWFGEAWYFDLWGRGTLVTVSS
VL: not shown
B1: the binding result is given as “binds”.

B2: COV2-2676 (human mAb, recombinant IgG1) (antibody, V domains shown)
VH: QVQLVQSGAEVKKPGSSVKVSCKASGGTFSSYAINWVRQAPGQGLEWMGGIIPIFGTANYAQKFQGRVTFTADESTSTAYMEVSSLRSEDTAVYYCARSCGDCYSADLDFWGQGTLVTVSS
VL: EIVLTQSPATLSLSPGERATLSCRASQSISSFLAWYQQKPGQAPRLLIYDASNRATGIPARFSGSGSGTDFTLTISSLEPEDFAVYYCQRRSNWPPFTFGPGTKVDIK
Turning to B2, the binding result is given as “binds”.
